The text below walks through data of PMC12901202.

The experiment has as its target SARS-CoV-2 JN.1 RBD, biotinylated (SARS-CoV-2) (UniProt P0DTC2). The experiment can be described thus: BLI; […]; 300 s association, 300 s dissociation; 10x kinetics buffer; […]; global fit, 1:1 model; […].

In turn, “TRI2-2 homotrimeric miniprotein inhibitor (designed binder)” yielded a Kd of 6.19 nM, a koff of 0.00175 s⁻¹ and a kon of 282000 M⁻¹ s⁻¹.
